No end group written: not given here.
Target: SNX27 PDZ (amino acids 740–141) (human, UniProt Q96L92 43-136)
Assay: fluorescence polarisation
Settings: both partners purified

B1: FITC-labeled peptide NSP11 4393-4405 of SARS-CoV-2 (peptide)
peptide: SADAQSFLNGFAV
modifications: also: FITC-labeled
Kd: > 400 µM
